# Results published in patent US20230183713A1, “SITE-SPECIFIC RECOMBINASES FOR EFFICIENT AND SPECIFIC GENOME EDITING” (TECHNISCHE UNIVERSITÄt DRESDEN, published 2023).
# T1: Vika recombinase monomer with Q330R mutation
# T1 chain: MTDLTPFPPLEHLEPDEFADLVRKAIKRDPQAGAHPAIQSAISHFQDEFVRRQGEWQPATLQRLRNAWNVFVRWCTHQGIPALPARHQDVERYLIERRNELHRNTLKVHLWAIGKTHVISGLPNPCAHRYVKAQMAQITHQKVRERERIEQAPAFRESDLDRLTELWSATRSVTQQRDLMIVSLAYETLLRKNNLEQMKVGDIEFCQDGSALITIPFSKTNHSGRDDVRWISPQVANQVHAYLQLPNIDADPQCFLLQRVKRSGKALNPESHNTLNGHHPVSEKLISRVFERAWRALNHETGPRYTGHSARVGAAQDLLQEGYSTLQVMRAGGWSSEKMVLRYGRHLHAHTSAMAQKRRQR
# T2: Cre recombinase monomer with W315T mutation
# T2 chain: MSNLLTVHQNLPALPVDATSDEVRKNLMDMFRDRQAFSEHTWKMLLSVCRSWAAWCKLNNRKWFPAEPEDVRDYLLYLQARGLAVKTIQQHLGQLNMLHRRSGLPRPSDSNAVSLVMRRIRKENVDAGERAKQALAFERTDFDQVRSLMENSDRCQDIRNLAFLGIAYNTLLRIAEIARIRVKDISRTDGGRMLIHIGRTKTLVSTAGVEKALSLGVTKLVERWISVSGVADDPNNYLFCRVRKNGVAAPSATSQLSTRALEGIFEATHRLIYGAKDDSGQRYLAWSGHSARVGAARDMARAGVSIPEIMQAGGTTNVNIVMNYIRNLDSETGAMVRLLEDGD
# T3: Cre recombinase monomer with Q311R mutation
# T3 chain: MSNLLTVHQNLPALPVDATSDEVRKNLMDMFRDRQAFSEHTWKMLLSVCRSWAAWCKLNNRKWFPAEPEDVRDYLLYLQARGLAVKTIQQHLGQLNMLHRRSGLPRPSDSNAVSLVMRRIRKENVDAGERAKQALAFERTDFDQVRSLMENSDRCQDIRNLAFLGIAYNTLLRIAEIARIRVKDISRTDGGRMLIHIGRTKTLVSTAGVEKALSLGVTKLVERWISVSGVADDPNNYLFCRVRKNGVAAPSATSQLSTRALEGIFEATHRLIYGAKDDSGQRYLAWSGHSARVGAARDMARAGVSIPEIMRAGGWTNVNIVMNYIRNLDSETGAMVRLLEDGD
# T4: Cre recombinase monomer with Y324F mutation
# T4 chain: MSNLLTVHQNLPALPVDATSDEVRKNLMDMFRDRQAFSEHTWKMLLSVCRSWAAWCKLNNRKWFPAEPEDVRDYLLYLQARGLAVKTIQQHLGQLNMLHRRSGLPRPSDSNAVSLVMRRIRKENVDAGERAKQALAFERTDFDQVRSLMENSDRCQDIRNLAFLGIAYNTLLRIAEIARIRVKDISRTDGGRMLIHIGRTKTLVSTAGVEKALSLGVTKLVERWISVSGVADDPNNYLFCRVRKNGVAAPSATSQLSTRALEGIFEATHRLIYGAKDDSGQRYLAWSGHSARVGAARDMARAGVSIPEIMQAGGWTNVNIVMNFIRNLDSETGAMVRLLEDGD
# T5: Cre recombinase monomer with W315R mutation
# T5 chain: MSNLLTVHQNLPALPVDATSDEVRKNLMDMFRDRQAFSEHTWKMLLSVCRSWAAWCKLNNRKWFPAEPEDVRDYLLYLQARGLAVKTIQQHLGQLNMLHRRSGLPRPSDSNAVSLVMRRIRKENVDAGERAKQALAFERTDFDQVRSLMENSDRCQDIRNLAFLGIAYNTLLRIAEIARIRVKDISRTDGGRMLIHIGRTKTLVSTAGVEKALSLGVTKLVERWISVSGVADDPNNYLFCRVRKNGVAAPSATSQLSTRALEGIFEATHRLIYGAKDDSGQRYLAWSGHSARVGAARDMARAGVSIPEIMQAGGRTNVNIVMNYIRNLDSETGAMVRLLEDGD
# T6: Cre recombinase monomer with K201R mutation
# T6 chain: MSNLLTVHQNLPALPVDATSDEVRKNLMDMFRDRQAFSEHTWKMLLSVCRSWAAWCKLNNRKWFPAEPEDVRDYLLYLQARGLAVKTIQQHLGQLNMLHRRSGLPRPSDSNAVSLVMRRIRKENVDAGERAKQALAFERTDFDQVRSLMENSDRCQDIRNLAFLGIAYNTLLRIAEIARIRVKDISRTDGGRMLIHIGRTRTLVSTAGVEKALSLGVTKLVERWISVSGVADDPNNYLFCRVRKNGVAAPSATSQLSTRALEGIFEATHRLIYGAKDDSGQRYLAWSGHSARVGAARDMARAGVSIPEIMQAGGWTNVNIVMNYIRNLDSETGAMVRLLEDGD
# T7: Cre recombinase monomer with Y324C mutation
# T7 chain: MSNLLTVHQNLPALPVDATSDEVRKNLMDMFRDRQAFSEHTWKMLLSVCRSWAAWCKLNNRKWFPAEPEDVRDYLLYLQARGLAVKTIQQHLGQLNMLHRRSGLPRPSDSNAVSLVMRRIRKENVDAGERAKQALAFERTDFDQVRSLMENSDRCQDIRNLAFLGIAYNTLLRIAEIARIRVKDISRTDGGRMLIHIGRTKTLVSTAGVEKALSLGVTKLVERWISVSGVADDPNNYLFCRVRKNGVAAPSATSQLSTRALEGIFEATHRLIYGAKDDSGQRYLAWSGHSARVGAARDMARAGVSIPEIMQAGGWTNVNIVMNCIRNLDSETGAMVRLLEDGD
# T8: Cre recombinase monomer with K201I mutation
# T8 chain: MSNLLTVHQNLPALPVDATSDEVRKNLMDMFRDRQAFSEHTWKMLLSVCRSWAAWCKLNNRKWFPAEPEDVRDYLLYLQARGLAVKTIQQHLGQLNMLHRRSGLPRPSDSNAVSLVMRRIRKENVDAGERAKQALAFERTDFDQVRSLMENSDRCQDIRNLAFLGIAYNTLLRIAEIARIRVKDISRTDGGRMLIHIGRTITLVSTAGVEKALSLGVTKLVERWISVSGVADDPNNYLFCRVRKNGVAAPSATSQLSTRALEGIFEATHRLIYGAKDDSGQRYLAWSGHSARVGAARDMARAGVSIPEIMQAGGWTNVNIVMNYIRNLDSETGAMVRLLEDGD
# T9: Cre recombinase monomer with W315I mutation
# T9 chain: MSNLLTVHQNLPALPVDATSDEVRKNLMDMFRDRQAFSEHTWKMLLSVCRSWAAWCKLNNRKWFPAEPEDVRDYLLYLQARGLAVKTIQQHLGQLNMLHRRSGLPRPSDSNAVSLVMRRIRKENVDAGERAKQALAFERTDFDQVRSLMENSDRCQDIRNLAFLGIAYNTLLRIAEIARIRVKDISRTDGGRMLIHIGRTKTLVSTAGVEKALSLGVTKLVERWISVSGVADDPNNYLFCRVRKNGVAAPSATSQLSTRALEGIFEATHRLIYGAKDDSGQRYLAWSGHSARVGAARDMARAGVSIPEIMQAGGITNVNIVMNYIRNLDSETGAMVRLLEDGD
# T10: Cre recombinase monomer with R292G mutation
# T10 chain: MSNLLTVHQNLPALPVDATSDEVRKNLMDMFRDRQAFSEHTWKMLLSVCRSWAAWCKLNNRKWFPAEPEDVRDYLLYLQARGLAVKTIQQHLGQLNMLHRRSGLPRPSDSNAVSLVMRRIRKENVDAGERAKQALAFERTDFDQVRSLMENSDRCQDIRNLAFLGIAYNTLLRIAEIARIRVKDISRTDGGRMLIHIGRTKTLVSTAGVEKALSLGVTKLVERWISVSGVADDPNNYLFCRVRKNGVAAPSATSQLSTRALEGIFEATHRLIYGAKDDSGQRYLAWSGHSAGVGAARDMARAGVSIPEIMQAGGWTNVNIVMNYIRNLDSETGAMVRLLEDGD
# B1: Vika recombinase monomer with K219R mutation (protein)
# chain: MTDLTPFPPLEHLEPDEFADLVRKAIKRDPQAGAHPAIQSAISHFQDEFVRRQGEWQPATLQRLRNAWNVFVRWCTHQGIPALPARHQDVERYLIERRNELHRNTLKVHLWAIGKTHVISGLPNPCAHRYVKAQMAQITHQKVRERERIEQAPAFRESDLDRLTELWSATRSVTQQRDLMIVSLAYETLLRKNNLEQMKVGDIEFCQDGSALITIPFSRTNHSGRDDVRWISPQVANQVHAYLQLPNIDADPQCFLLQRVKRSGKALNPESHNTLNGHHPVSEKLISRVFERAWRALNHETGPRYTGHSARVGAAQDLLQEGYSTLQVMQAGGWSSEKMVLRYGRHLHAHTSAMAQKRRQR
# B2: Cre recombinase monomer with K201F mutation (protein)
# chain: MSNLLTVHQNLPALPVDATSDEVRKNLMDMFRDRQAFSEHTWKMLLSVCRSWAAWCKLNNRKWFPAEPEDVRDYLLYLQARGLAVKTIQQHLGQLNMLHRRSGLPRPSDSNAVSLVMRRIRKENVDAGERAKQALAFERTDFDQVRSLMENSDRCQDIRNLAFLGIAYNTLLRIAEIARIRVKDISRTDGGRMLIHIGRTFTLVSTAGVEKALSLGVTKLVERWISVSGVADDPNNYLFCRVRKNGVAAPSATSQLSTRALEGIFEATHRLIYGAKDDSGQRYLAWSGHSARVGAARDMARAGVSIPEIMQAGGWTNVNIVMNYIRNLDSETGAMVRLLEDGD
# B3: Cre recombinase monomer with K201Q mutation (protein)
# chain: MSNLLTVHQNLPALPVDATSDEVRKNLMDMFRDRQAFSEHTWKMLLSVCRSWAAWCKLNNRKWFPAEPEDVRDYLLYLQARGLAVKTIQQHLGQLNMLHRRSGLPRPSDSNAVSLVMRRIRKENVDAGERAKQALAFERTDFDQVRSLMENSDRCQDIRNLAFLGIAYNTLLRIAEIARIRVKDISRTDGGRMLIHIGRTQTLVSTAGVEKALSLGVTKLVERWISVSGVADDPNNYLFCRVRKNGVAAPSATSQLSTRALEGIFEATHRLIYGAKDDSGQRYLAWSGHSARVGAARDMARAGVSIPEIMQAGGWTNVNIVMNYIRNLDSETGAMVRLLEDGD
# B4: Cre double mutant CreK201R+Q311R (both mutations in the same monomer) (protein)
# chain: MSNLLTVHQNLPALPVDATSDEVRKNLMDMFRDRQAFSEHTWKMLLSVCRSWAAWCKLNNRKWFPAEPEDVRDYLLYLQARGLAVKTIQQHLGQLNMLHRRSGLPRPSDSNAVSLVMRRIRKENVDAGERAKQALAFERTDFDQVRSLMENSDRCQDIRNLAFLGIAYNTLLRIAEIARIRVKDISRTDGGRMLIHIGRTRTLVSTAGVEKALSLGVTKLVERWISVSGVADDPNNYLFCRVRKNGVAAPSATSQLSTRALEGIFEATHRLIYGAKDDSGQRYLAWSGHSARVGAARDMARAGVSIPEIMRAGGWTNVNIVMNYIRNLDSETGAMVRLLEDGD
# How the values were obtained:
# [1] = molecular target: T1, Vika recombinase monomer with Q330R …
# [2] = molecular target: T2, Cre recombinase monomer with W315T …
# [3] = molecular target: T3, Cre recombinase monomer with Q311R …
# [4] = molecular target: T4, Cre recombinase monomer with Y324F …
# [5] = molecular target: T5, Cre recombinase monomer with W315R …
# [6] = molecular target: T6, Cre recombinase monomer with K201R …
# [7] = molecular target: T7, Cre recombinase monomer with Y324C …
# [8] = molecular target: T8, Cre recombinase monomer with K201I …
# [9] = molecular target: T9, Cre recombinase monomer with W315I …
# [10] = molecular target: T10, Cre recombinase monomer with R292G …
protein,measurement,setting,value
B1,recombination on vox excision substrate in E. coli,[1],A similar activity profile (although with some loss of activity) was seen when Vika^K219R and Vika^Q330R were co-expressed on the vox target sequence
B2,Median dimer activity (recombination on loxP),[2],41%
same,Median dimer activity (recombination on loxP),[3],94%
same,Median dimer activity (recombination on loxP),[4],54%
same,Median dimer activity (recombination on loxP),[5],29%
same,Median dimer activity (recombination on loxP),[6],59%
same,Median dimer activity (recombination on loxP),[7],98%
same,Median dimer activity (recombination on loxP),[8],72%
B3,Median dimer activity (recombination on loxP),[3],94%
same,Median dimer activity (recombination on loxP),[9],30%
same,Median dimer activity (recombination on loxP),[10],58%
B4,recombination on loxP excision substrate in E. coli,,showed no observable recombination of the loxP target sequence
